{"source": "the nanobody polyreactivity screen of Harvey et al. (2022)", "data": [{"experiment": "yeast display, Sf9 membrane polyspecificity reagent, FACS + sequencing; frameworks hold sequencing errors", "in_short": "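Galactose induction of a Saccharomyces cerevisiae BJ5465 synthetic nanobody display library ran 36–48 hours. The cells were then stained for 1 hour at 4 °C with 10% biotinylated, detergent-solubilized Sf9 membrane reagent, pulled down on streptavidin microbeads and FACS-sorted into low and high (top ~1%) gates on expression and reagent-binding fluorescence. Labels for polyreactivity follow the gate of origin.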", "values": [{"sequence": "QVQLVESGGGLVQAGGSLRLSCAASGFTFERNAMGWYIQAPGKERELVATINGSSDSTYYADSVKGRFTISRDNAKNTVYLQMNSLKPEDTAVYYCNADSITEGNSRYSHFDYWGQGTQVTVSS", "polyreactivity (PSR sort gate)": "low polyreactivity"}, {"sequence": "QVQLVESGGGLVQAGGSLRLSCAASGFTFESYAMGWYRQAPGKERELVAAISWNGGSTYYADSVKGRFTISRDNAKNTVYLQMNSLKPADTAVYYCAARGRAPRFRRIGYDYWGQGTQVTVSS", "polyreactivity (PSR sort gate)": "high polyreactivity"}, {"sequence": "QVQLVESGGGLVQAGGSLRLSCAASGFTFEYYAMGWSRQAPGKETELVATITWNGGSTYYADSVKGRFTISRDNAKNTVYLQMNSLKPVDTAVYYCAADEQAYYVRRFDYWGQCTQVTVSS", "polyreactivity (PSR sort gate)": "low polyreactivity"}, {"sequence": "QVQLVESGGGLVQAGGSLRLSCAASGFTFEYYAMGWYRQAPGKERELVAAIRSDSGTNYADSVKGRFTISRDNAKNTVYLQMNSLIPEDTAVYYCAAPTVVLIDYDYWGQGTQVTVSS", "polyreactivity (PSR sort gate)": "low polyreactivity"}, {"sequence": "QVQLVESGGGLVQAGGSLRLSCAASGFTFFDNAMGWYRQAPGKERELVAAITWSDGSTYYADSVKGRFTISRDNAKNTVYLQMNSLKPEDTAVYYCAVGFISYSYSNYYDVWYEYYYWGQGTQVTVSS", "polyreactivity (PSR sort gate)": "low polyreactivity"}, {"sequence": "QVQLVESGGGLVQAGGSLRLSCAASGFTFFFNAMGWYRQAPGKERELVASIRSDGDTNYADSVKGRFTISRDNAKNTVYLQMNSLKPEDTAVYYCAKVWYVFRYVSTEYDYWGQGTQVTVSS", "polyreactivity (PSR sort gate)": "high polyreactivity"}, {"sequence": "QVQLVESGGGLVQAGGSLRLSCAASGFTFFFYAMGWYRQAPGKVRELVAGISQSGGNTNYADSVKGRFTISRDNAKNTVYLQMNSLKPEDTAVYYCAKTRYQYWRVTAFDYWGQGTQVTVSS", "polyreactivity (PSR sort gate)": "low polyreactivity"}, {"sequence": "QVQLVESGGGLVQAGGSLRLSCAASGFTFFGYAMGWYRQAPGKERELVATISDTGGSTYADSVKGRFTISRDNAKNTVYLQMNSLKPEDTAVYYFNARSVFYSMDYWGQGTQVTVSS", "polyreactivity (PSR sort gate)": "low polyreactivity"}, {"sequence": "QVQLVESGGGLVQAGGSLRLSCAASGFTFFIYVMGWYRQAPGKEREYVAAISSSGDSTYYADSVKGRFTISRDNAKNTVYLQMNSLIPEDTAVYYCNAGDKVSSYWYDYWGQGTQVTVSS", "polyreactivity (PSR sort gate)": "low polyreactivity"}, {"sequence": "QVQLVESGGGLVQAGGSLRLSCAASGFTFFPYAMGWYRQAPGKEREFVAANFSDGSTYYADSVKGRFTISRDNAKNTVYLQINILKPEDTAVYYWAAAWYEQAYQTGYFEFDYWGLGTQVTVSS", "polyreactivity (PSR sort gate)": "low polyreactivity"}, {"sequence": "QVQLVESGGGLVQAGGSLRLSCAASGFTFFSNAMGWYREAPGQERELVASITNDGSTYADSVKGRFTISRDNAKNTVYLQMNSLKPEDTAVYYCAARFPQWRYSRRTCERFDYWGQGTQVTVSS", "polyreactivity (PSR sort gate)": "low polyreactivity"}, {"sequence": "QVQLVESGGGLVQAGGSLRLSCAASGFTFFSNAMGWYRQAPGKERELVASISASGSGTYYADSVKGRFTISRDNAKNTVYLQMNSLKPEDTAVYYCAAQYRVNARSGVYRGYRYNYWGQGTQVTVSS", "polyreactivity (PSR sort gate)": "high polyreactivity"}, {"sequence": "QVQLVESGGGLVQAGGSLRLSCAASGFTFFTNAMGWYRQAPGKEREFVAAISKSGSRTYYADSVKGRFTISRDNAKNTVYLQMNSLKPEDTAVYYCAAGYVTLFGFYRYYLWGQGTQVTVSS", "polyreactivity (PSR sort gate)": "high polyreactivity"}, {"sequence": "QVQLVESGGGLVQAGGSLRLSCAASGFTFFVYAMGWYRKAPGKERELVATINWSGASTYYADSVKGRFTISRDNAKNTVYLQMNSLKPEDTAVYYCDKDGHYPLVYLAFDYWGQGTQVTVSS", "polyreactivity (PSR sort gate)": "low polyreactivity"}, {"sequence": "QVQLVESGGGLVQAGGSLRLSCAASGFTFFVYGMGWYRQAPGKERELVATINWSGASTYYADSVKGRFTISRDNAKNTVYLQMNSLKPEDTAVYSCAKDGHYPLVYLAFDYWGQGTQVTVSS", "polyreactivity (PSR sort gate)": "low polyreactivity"}, {"sequence": "QVQLVESGGGLVQAGGSLRLSCAASGFTFGANVMGWYRPAPGKERELVAGITWSGDSTYYADSVKGRFTISRDNAKNTVYLQMNSLKPEDTAVYYCAADVYDGEYILDYDYWGQGTQVTVSS", "polyreactivity (PSR sort gate)": "low polyreactivity"}, {"sequence": "QVQLVESGGGLVQAGGSLRLSCAASGFTFGDNAMGWYRQAPGKERELVAAITSTGGSTNYADSVKGRFTISRDNAKNTVYLQINSLKPEDTAVYYCAAEWLYPHDGGYPRPMDYWGQGTQVTVSS", "polyreactivity (PSR sort gate)": "low polyreactivity"}, {"sequence": "QVQLVESGGGLVQAGGSLRLSCAASGFTFGDYVMGWYRQAPGKERELVAAITTSGTRTSYADSVKGRFTISRDNAKNTVYLQMNSLKPEDTAVYYCAAEHTNYYYFWQAHYYWGQGTQVTVSS", "polyreactivity (PSR sort gate)": "high polyreactivity"}, {"sequence": "QVQLVESGGGLVQAGGSLRLSCAASGFTFGGNAMGWYRQAPGKEREFVAAITRSGGSTYYADSVKGRFTISRDNAKNTVYLQMHSLKPEDTAVYYCAARRSYPLGYDYWGQGTQVTVSS", "polyreactivity (PSR sort gate)": "high polyreactivity"}, {"sequence": "QVQLVESGGGLVQAGGSLRLSCAASGFTFGGNTMGWYRQAPGKERELVAAITQGGSSTYYADSVKGRFTISRDNAKNTVYLQMNSLKPEDTAVYYCNRGSPFGGLRPYDYWGQGTQVTVSS", "polyreactivity (PSR sort gate)": "high polyreactivity"}, {"sequence": "QVQLVESGGGLVQAGGSLRLSCAASGFTFGGYAMGWYRQAPGKERELVAAINWSGGSTDYADSVKGRFTISRDIAKNTVYLQMNSLKPEDTAVYYCAAEGQDGRFYWGQGTQVTVSS", "polyreactivity (PSR sort gate)": "low polyreactivity"}, {"sequence": "QVQLVESGGGLVQAGGSLRLSCAASGFTFGGYAMGWYRQAPGKERELVAAISRSGGSTSYADSVKGRFTISRDNAKNTVYLQMNSLKPEDTAVYYCATLWTTKYWGQGTQVTVSS", "polyreactivity (PSR sort gate)": "high polyreactivity"}, {"sequence": "QVQLVESGGGLVQAGGSLRLSCAASGFTFGGYAMGWYRQAPGKERGLVAAISGSGGRTYYADSVKGRFTISRDNAKNTVYLQMNSLKPEDTAVYYCAAETVTRSFYSEYDYWGQGTQVTVSS", "polyreactivity (PSR sort gate)": "low polyreactivity"}, {"sequence": "QVQLVESGGGLVQAGGSLRLSCAASGFTFGGYAMGWYRQAPGKESEFVAAITGTGGNTFYADSVKGRFTISRDNAKNTVYLQMNSLKPEDTAVYYCAKTWYPWSRYGYYRRYDSWGQGTQVTVSS", "polyreactivity (PSR sort gate)": "low polyreactivity"}, {"sequence": "QVQLVESGGGLVQAGGSLRLSCAASGFTFGHYVMGWYRQAPGKERELVAAITLSGGGTYYADSVKGRFTISRDNAKNTVYLQMNSLKTEDTAVYYCAAVRRAEEFDYWGQGTQVTVSS", "polyreactivity (PSR sort gate)": "low polyreactivity"}, {"sequence": "QVQLVESGGGLVQAGGSLRLSCAASGFTFGLNVMGWYRQAPGKERELVAAISQSGGSTYYADSVKGRFTISRDNAKNTVYLQMNSLKPEDTAVYYCAVDYYPNPSYTVYDDEYWGQGTQVTVSS", "polyreactivity (PSR sort gate)": "low polyreactivity"}, {"sequence": "QVQLVESGGGLVQAGGSLRLSCAASGFTFGLYAMGWYRQAPGKERELVAAITWSGGSTYYADSVKGRFTISRDNAKNTVYLQMNSLKPEDTAFYYCNRLSNNREYDYWGQGTQVTLSS", "polyreactivity (PSR sort gate)": "high polyreactivity"}, {"sequence": "QVQLVESGGGLVQAGGSLRLSCAASGFTFGLYAMGWYRQAPGKERELVAVISSSGGSTYYADSVKGRFTISRDNAKNTVYLQMNSLTPEDTAVYYCAKDFEAGDDYFAYDYWGQGTQVTVSS", "polyreactivity (PSR sort gate)": "low polyreactivity"}, {"sequence": "QVQLVESGGGLVQAGGSLRLSCAASGFTFGLYGMGWYRQAPGKERELVAAISSSGGDTYYADSVKGRFTISRDNAKNTVYLQMNSLKPEDTAVYYCAATADWATHDYWGQGTQVTVSS", "polyreactivity (PSR sort gate)": "low polyreactivity"}, {"sequence": "QVQLVESGGGLVQAGGSLRLSCAASGFTFGLYGMGWYRQAPGKERELVAAISSSGGDTYYADSVKGRFTISRDNAKNTVYLQMNSLKPEDTAVYYCAATADWATYDYWGQGTQVTVSS", "polyreactivity (PSR sort gate)": "low polyreactivity"}, {"sequence": "QVQLVESGGGLVQAGGSLRLSCAASGFTFGNAMGWYRQAPGKERELVAAITVNGGTTNYADSVKGRFTISRDNAKNTVYLQMNSLKPEDTAVYYCNVDTSYGAAGDYWGQGTQVTVSS", "polyreactivity (PSR sort gate)": "low polyreactivity"}, {"sequence": "QVQLVESGGGLVQAGGSLRLSCAASGFTFGPYAMGWYRQAPGKERELVAGITWSGASTYYADSVKGRFTISRDNAKNTVYLQMNSLKPEDTAVYYCARYYRLGSRYDYWGQGTQVTVSS", "polyreactivity (PSR sort gate)": "low polyreactivity"}, {"sequence": "QVQLVESGGGLVQAGGSLRLSCAASGFTFGRIAMGGYRQAPGKERELVASIDWSGGSTYYADSVKGRFTISRDNAKNTVYLQMNSLKPEDTAVYYCAVGPNSVGNRSYGFDYWGQGTQVTVSS", "polyreactivity (PSR sort gate)": "low polyreactivity"}, {"sequence": "QVQLVESGGGLVQAGGSLRLSCAASGFTFGRYAMGWYRPAPGKERELVPAISFSGGRTYYADSVKGRFTISRDNAKNTVYLQMNCMKPEDTAVYYCAARRSEEHVGRSTYARYDYWGQGTQVTVSS", "polyreactivity (PSR sort gate)": "high polyreactivity"}, {"sequence": "QVQLVESGGGLVQAGGSLRLSCAASGFTFGRYAMGWYRQAPGKEREFVAGITWSGGSTSYADSVKGRFTISRDNAKNTVYLQMNSLKREDTAVYYSATRARYTRVHGRRYAYDYWGQGTQVTVSS", "polyreactivity (PSR sort gate)": "high polyreactivity"}, {"sequence": "QVQLVESGGGLVQAGGSLRLSCAASGFTFGRYAMGWYRQAPGKERELVAAISRTGGRTYYADSVKGRFTISRDNAKNTVYLQMNSLKPEDTAVYYCAADKGGTYFNGDSWGQGTLVTVSS", "polyreactivity (PSR sort gate)": "high polyreactivity"}, {"sequence": "QVQLVESGGGLVQAGGSLRLSCAASGFTFGRYARGWYRQAPGKERELVAAISRGGSSTYYADSVKGRFTISRDNAKNTVYLQMNSLKPEDTAVYYCNKVIIWARFDYWGQGTQVTVSS", "polyreactivity (PSR sort gate)": "high polyreactivity"}, {"sequence": "QVQLVESGGGLVQAGGSLRLSCAASGFTFGSNAMGWYRQAPGKERELVAAISSGDSTHYADSVKGRFTISRDNAQNTVYLQMNSLKPEDTAVYYCNADNILYWSTLDYWGQGTQVTVSS", "polyreactivity (PSR sort gate)": "low polyreactivity"}, {"sequence": "QVQLVESGGGLVQAGGSLRLSCAASGFTFGSNAMGWYRQAPGKERELVADITVSGGSTYYADSVKGRFTISRDNAKNTVYLQMNSLKPEDTAVYYCAKDPRTYLDYDYWGQGTQVNVSS", "polyreactivity (PSR sort gate)": "low polyreactivity"}, {"sequence": "QVQLVESGGGLVQAGGSLRLSCAASGFTFGSNTMGWYRQAPGKERELVAAITTSGDSTYYADSVKGRFTISRDNAKNTVYLQMNSLKPEDTAVYYCAARTYYQGGYYYWGPGTQVTVSS", "polyreactivity (PSR sort gate)": "high polyreactivity"}]}]}
